Data published in publication PMC5003437, “Development and Optimization of a Thrombin Sandwich Aptamer Microarray”.

Legend:
[1] = biological target: T1, human alpha-thrombin (Homo sapiens, UniProt P00734;P00734 328-363;364-622); experiment: sandwich aptamer microarray (fluorescence); thrombin captured on immobilized TBA1, Cy3-streptavidin detection; LOD 0.17 nM (not Kd); 20 mM Tris, 140 mM NaCl, 5 mM KCl, 1 mM MgCl2, pH 7.5, 25 C; 30 min pre-incubation with TBA2, then 2 h on array; PBS wash
[2] = biological target: T1, human alpha-thrombin; experiment: sandwich aptamer microarray (fluorescence); thrombin captured on immobilized TBA1; LOD 0.75 nM (not Kd); 20 mM Tris, 140 mM NaCl, 5 mM KCl, 1 mM MgCl2, pH 7.5, 25 C; 30 min pre-incubation with TBA2, then 2 h on array; PBS wash

Binder | binding result [1] | binding result [2]
AGTCCGTGGTAGGGCAGGTTGGGGTGACT (structured_DNA) [TBA2-biotin] | binds | –
AGTCCGTGGTAGGGCAGGTTGGGGTGACT (structured_DNA) [TBA2-Cy5] | – | binds
